As a reminder, the EC50 is the concentration needed to bring the measured effect to its halfway point. A higher EC50 goes with weaker potency. A word on the IC50: it is the concentration at which inhibition is half-maximal. What is called Kd is a measure of binding affinity in units of concentration. The koff is a measure of how fast the partners let go of each other. The low end stands for slow dissociation, the high end for fast dissociation. Usually kon stands for the rate constant with which the complex forms. Lower therefore signals slow association.

Test [1] has as its target T1, human TIGIT on CHOK1-huTIGIT-2A3 cells (human, UniProt Q495A1 22-244).
T1 construct: whole, on cells; also called cells expressing the human TIGIT
T1 sequence (looked up): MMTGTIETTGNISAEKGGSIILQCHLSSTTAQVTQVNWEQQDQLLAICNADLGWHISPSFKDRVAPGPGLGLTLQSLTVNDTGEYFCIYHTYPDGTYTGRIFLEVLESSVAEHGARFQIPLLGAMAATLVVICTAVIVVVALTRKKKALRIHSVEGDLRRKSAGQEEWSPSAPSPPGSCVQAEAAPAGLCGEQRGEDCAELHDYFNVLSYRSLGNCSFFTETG
As to the kind of experiment: flow cytometry on CHOK1-huTIGIT-2A3 cells. As for the experimental part: All chimeric antibodies and humanized antibodies were diluted to 20 μg/ml with 1% BSA in PBS solution (1% BSA/PBS), were added to a 96-well U-shaped plate at 20 μL per well; and a negative control (with 1% BSA/PBS added only) was set up at the same time. The suspension of cells (CHOK1-huTIGIT-2A3, Huabo Biopharm) expressing human TIGIT during the logarithmic growth phase were centrifuged (1000 rpm×5 min) to discard the culture medium; and the cells were resuspended with 1% BSA/PBS until the density of viable cells was 1×10⁶/mL, and were added, at 20 μL (2×10⁴ cells) per well, to the 96-well U-shaped plate with the anti-TIGIT antibody to react for 30 min at room temperature. After reaction, the 96-well U-shaped plate was resuspended with 1% BSA/PBS, centrifuged (300 g×3 min) to discard the supernatant, and washed once in such a way; and PE-goat anti-human-Fc (Jackson ImmunoResearch, #109-115-098) diluted at 1:200 was added to react for 15 min in the dark at room temperature. After reaction, the 96-well U-shaped plate was resuspended with 1% BSA/PBS, centrifuged (300 g×3 min) to discard the supernatant, washed three times in such a way, and finally resuspended with 100 μL of 1% BSA/PBS for each wall; and the fluorescence intensity of a PE channel was detected with a flow cytometer (BD, #CantoII).
A general note: A flow cytometer gives signals particle by particle.

In test [2] the target is T1, human TIGIT on CHOK1-huTIGIT-2A3 cells. Briefly: flow cytometry competition with huCD155-moFc on CHOK1-huTIGIT-2A3 cells. As for the experimental part:
After reaction, the 96-well U-shaped plate was resuspended with 1% BSA/PBS, centrifuged (300 g×3 min) to discard the supernatant, and washed once in such way; and Alexa488-goat anti-mouse-Fc (Jackson ImmunoResearch, #115-545-071) diluted at 1:300 was added to react for 15 min in the dark at room temperature. After reaction, the 96-well U-shaped plate was resuspended with 1% BSA/PBS, centrifuged (300 g×3 min) to discard the supernatant, washed three times in such a way, and finally resuspended with 100 μL of 1% BSA/PBS for each wall; and the fluorescence intensity of an FITC channel was detected with a flow cytometer (BD, #CantoII).

Test [3] addresses T2, histidine-tagged (His-Tag) human TIGIT protein (huTIGIT, ACRO Biosystems, #TIT-H52H3) (human, UniProt Q495A1 22-141).
T2 construct: Bought reagent; not shown: His tag
T2 sequence (looked up): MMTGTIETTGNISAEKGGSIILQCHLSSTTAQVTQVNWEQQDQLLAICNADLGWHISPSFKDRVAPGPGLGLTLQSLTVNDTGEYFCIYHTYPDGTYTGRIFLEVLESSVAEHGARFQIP
Briefly: SPR (Biacore 8K), antibody captured on Protein A chip, huTIGIT-His analyte, 1:1 model. As for the experimental part:
This test determined the antigen-antibody binding kinetics and affinity by using an SPR method. BIOCORE (GE, #Biacore 8K) was used. […] An antibody sample was diluted using an equilibration buffer to an experimental working concentration, and sealed at 2-8° C. for later use. The antigen, namely, the histidine-tagged (His-Tag) human TIGIT protein (huTIGIT, ACRO Biosystems, #TIT-H52H3), was diluted with an equilibration buffer HBS-EP (10×) (GE, #BR-1006-69). Starting at 20 nM, the antigen was diluted by 2.5-fold for 5 concentration gradients, and 2 replications were set up for zero concentration (i.e., the equilibration buffer) and the lowest concentration. The chip was regenerated with pH1.5 glycine solution (GE, #BR100354).

The target in test [4] is T3, Human TIGIT (SPR analyte, Example 7) (human, UniProt Q495A1 22-141, limits assumed).
T3 sequence (looked up): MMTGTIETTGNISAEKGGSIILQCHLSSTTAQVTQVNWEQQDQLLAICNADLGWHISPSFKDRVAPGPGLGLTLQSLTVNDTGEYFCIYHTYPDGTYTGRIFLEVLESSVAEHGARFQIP
As to the kind of experiment: SPR (Biacore 8K), antibody captured by anti-human chip, antigen analyte, 1:1 model. The method, then: (§1) The Anti-Human Capture-CMS chip (GE, #BR-1005-30) was prepared according to the method for conjugating the Human Antibody Capture Kit (GE, #BR-1008-39) to the Amino Conjugation Kit (GE, BR-1000-50).
(SPR reads the build-up and loss of mass on a sensor chip optically.)

Test [5] addresses TIGIT on Jurkat-TIGIT-22G8 cells. As to the kind of experiment: cell-based or functional assay.
Test [6] addresses T3, Human TIGIT (SPR analyte, Example 7). Briefly: SPR (Biacore 8K), antibody captured by anti-human chip, antigen analyte, 1:1 model. The method, then:
as §1
The source holds these as a separate data set.

The target of test [7] is T4, human TIGIT (hybridoma screening, Table 1) (human, UniProt Q495A1 22-141, limits assumed).
T4 sequence (looked up): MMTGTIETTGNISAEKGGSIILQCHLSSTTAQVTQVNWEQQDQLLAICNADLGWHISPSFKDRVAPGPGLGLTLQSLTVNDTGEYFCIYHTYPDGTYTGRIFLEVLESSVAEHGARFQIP
As to the kind of experiment: Biacore (SPR), hybridoma screening.

Read-outs that look alike come from different tables or passages of the source.

B1: HB0030 (antibody, human IgG1, kappa, V domains shown)
VH: QVQLQESGPGLVKPSETLSLTCTVSGYSITSDYAWIWIRQPPGKGLEWIGYITSSGSTYYNPSLKSRVTFSVDTSKNQFSLKLSSVTAADTATYYCARLDFGNYGGAMDYWGQGTLVTVSS
VL: DIQMTQSPSSLSASVGDRVTITCRASQHVSTAVNWYQQKPGKAPKLLIYSASYLYSGVPSRFSGSRSGTDFTLTISSLQPEDFATYYCQQHYITPYTFGQGTKLEIKR
notes: Humanized anti-TIGIT IgG1; also called 900461; TIGIT parental monoclonal antibody
The molecule B1 came in with an EC50 in test [1] of 0.0466 µg/mL. The molecule further had an IC50 in test [2] of 0.0573 µg/mL. In test [3], binding was put at a Kd of 58.3 pM, the off-rate constant (koff) is 0.000185 s⁻¹ and the kon turned out to be 3.17e+06 M⁻¹ s⁻¹. Also, in test [4], the Kd was 34.5 pM, the koff was 0.000167 s⁻¹ and the kon worked out at 4.82e+06 M⁻¹ s⁻¹. In test [5], the “EC50 (nM), IL2 secretion of Jurkat-TIGIT-22G8 cells with PHA and CD155” value worked out at 5.82 nM. For the same molecule, in test [6], the Kd came to 34.6 pM, the koff came to 0.000175 s⁻¹ and the kon was found to be 5.07e+06 M⁻¹ s⁻¹.

B2: B3/29F6 (antibody, V domains shown)
VH: DVQLQESGPGLVKPSQSLSLTCTVTGYSITSDYAWIWIRQFPGNKVEWMGYITSSGSTSYNPSLKSRISFTRDTSKNQFFLQLTSVTTEDTATYYCARLDFGNYGGAMDYWGQGTSVTVSS
VL: DIVMTQSHKFMSTSIGDRVSITCKASQHVSTAVAWYQQKPGQSPKLLIYSASYRYTGVPDRFTGSRSGTDFTFTISSVQAEDLAVYYCQQHYITPYTFGGGTKLEIK
notes: Mouse hybridoma antibody
Turning to B2, in test [7], the equilibrium dissociation constant (Kd) is 13.9 pM.

Values taken from patent US20240010730A1 (SHANGHAI HUAOTA BIOPHARMACEUTICAL, published 2024).
